Measurements from patent EP2014310A2 (Dyax Corporation, dated 2009).
Bridge positions count the residues as written; N and C are the ends.

Legend:
[1] = target: T1, human KDR-Fc fusion (R&D Systems #357-KD-050) (human, UniProt P35968 20-764); assay: fluorescence anisotropy, fluorescein-labeled peptide
T1 construct: bought

[2] = target: T1, human KDR-Fc fusion (R&D Systems …); assay: phage binding screen on KDR-Fc; class legend in paragraph 246

T1 sequence (P35968 20-764): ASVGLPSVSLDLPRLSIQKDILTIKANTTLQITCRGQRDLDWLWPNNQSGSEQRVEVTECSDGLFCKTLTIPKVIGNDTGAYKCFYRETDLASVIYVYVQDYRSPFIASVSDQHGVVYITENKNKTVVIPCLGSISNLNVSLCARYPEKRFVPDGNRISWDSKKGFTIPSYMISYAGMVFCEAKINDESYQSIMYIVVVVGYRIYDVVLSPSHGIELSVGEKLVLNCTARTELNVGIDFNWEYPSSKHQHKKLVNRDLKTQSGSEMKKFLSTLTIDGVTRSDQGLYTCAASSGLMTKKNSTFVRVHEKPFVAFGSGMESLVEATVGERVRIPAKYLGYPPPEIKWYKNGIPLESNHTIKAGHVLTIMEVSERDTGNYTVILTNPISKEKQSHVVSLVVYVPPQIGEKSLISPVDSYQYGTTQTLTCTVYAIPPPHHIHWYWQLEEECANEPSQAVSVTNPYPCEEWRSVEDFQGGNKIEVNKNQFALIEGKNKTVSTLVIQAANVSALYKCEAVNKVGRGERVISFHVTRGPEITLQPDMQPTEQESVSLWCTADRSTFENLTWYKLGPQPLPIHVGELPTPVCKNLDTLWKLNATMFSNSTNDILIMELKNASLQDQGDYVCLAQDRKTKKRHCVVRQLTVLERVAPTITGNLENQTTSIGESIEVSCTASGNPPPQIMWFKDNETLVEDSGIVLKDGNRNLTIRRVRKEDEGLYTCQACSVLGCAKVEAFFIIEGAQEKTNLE

Ac-SGRLDCDKVFSGPYGKVCVSYGSGGGK-NH2 (disulfide 6-18 (inferred); not fully specified) [SEQ ID NO:316]
Kd [1]: 1050 nM

Ac-AGFTWVECHQATGRCVEWTTGTGGGK-NH2 (disulfide 8-15 (inferred); not fully specified) [SEQ ID NO:285]
Kd [1]: 2000 nM

Ac-AGPDWCAADWYYCYITGTGGGK-NH2 (disulfide 6-13 (inferred); not fully specified) [SEQ ID NO:275]
Kd [1]: 57 nM

Ac-AGGGWVECYWATGRCIEFAGGTGGGK-NH2 (disulfide 8-15 (inferred); not fully specified) [SEQ ID NO:288]
binding result [1]: no binding

Ac-AGWIQCNSITGHCTSGGTGGGK-NH2 (disulfide 6-13 (inferred); not fully specified) [SEQ ID NO:268]
Kd [1]: 240 nM

Ac-AGDSWVECDAQTGFCYSFLYGTGGGK-NH2 (disulfide 8-15 (inferred); not fully specified) [SEQ ID NO:287]
Kd [1]: 2300 nM

Ac-SGAHQCHHWTSGPYGEVCFNYGSGGGK-NH2 (disulfide 6-18 (inferred); not fully specified) [SEQ ID NO:319]
Kd [1]: ~2000 nM

Ac-AGSKWCEQDWYYCWLLGTGGGK-NH2 (disulfide 6-13 (inferred); not fully specified) [SEQ ID NO:278]
Kd [1]: 400 nM

PKWCEEDWYYCMIT [phage isolate PKWCEEDWYYCMIT]
binding result [2]: binds

Ac-GDPAQCWESNYQGIFFCDNPDPGGGK-NH2 (disulfide 6-17 (inferred); not fully specified) [SEQ ID NO:298]
Kd [1]: 2300 nM

B1: SEQ ID NO:284 (peptide)
peptide: Ac-AGVGWVECYQSTGFCYHSRDGTGGGK-NH2
modifications: cysteine pairing not given here; also: C-terminal Lys fluorescein-labeled in some assays
Kd [1]: 1300 nM

ANWCEEDWYYCFIT [phage isolate ANWCEEDWYYCFIT]
binding result [2]: binds

ANWCEEDWYYCYIT [phage isolate ANWCEEDWYYCYIT]
binding result [2]: binds

ANWCEEDWYYCWIT [phage isolate ANWCEEDWYYCWIT]
binding result [2]: binds

Ac-GSNSHCYIWDGMWLCFPDAPGGGK-NH2 (disulfide 6-15 (inferred); not fully specified) [SEQ ID NO:315]
Kd [1]: 740 nM

Ac-AGQAWVECYAETGYCWPRSWGTGGGK-NH2 (disulfide 8-15 (inferred); not fully specified) [SEQ ID NO:282]
Kd [1]: 710 nM

Ac-AGQAWIECYAEDGYCWPRSWGTGGGK-NH2 (disulfide 8-15 (inferred); not fully specified) [SEQ ID NO:283]
Kd [1]: 1400 nM

Ac-AGPWTCWLEDHLACAMLGTGGGK-NH2 (disulfide 6-14 (inferred); not fully specified) [SEQ ID NO:312]
Kd [1]: 3900 nM

Ac-GDPPLCYFVGTQEWHHCNPFDPGGGK-NH2 (disulfide 6-17 (inferred); not fully specified) [SEQ ID NO:296]
Kd [1]: 600 nM

Ac-AQRSWYLGPPYYEEWDPIPNGGK-NH2 (not fully specified) [SEQ ID NO:309]
Kd [1]: 1800 nM

Ac-AGERWVECRAETGFCYTWVSGTGGGK-NH2 (disulfide 8-15 (inferred); not fully specified) [SEQ ID NO:289]
Kd [1]: 2100 nM

B2: SEQ ID NO:487 (peptide)
peptide: Ac-GDSSVCFEYSWGGEVCFRYDPGGGK-NH2
modifications: disulfide 6-16 (inferred); not fully specified; also: C-terminal Lys fluorescein-labeled in some assay forms
Kd [1]: 58 nM

B3: SEQ ID NO:297 (peptide)
peptide: Ac-GDDSYCMMNEKGWWNCYLYDPGGGK-NH2
modifications: cysteine pairing not given here; also: C-terminal Lys fluorescein-labeled in some assays
Kd [1]: 1300 nM

Ac-AGEGWVECFANTGACFTYPRGTGGGK-NH2 (disulfide 8-15 (inferred); not fully specified) [SEQ ID NO:292]
Kd [1]: 2100 nM

Ac-AGANWCEEDWYYCWITGTGGGK-NH2 (disulfide 6-13 (inferred); not fully specified) [SEQ ID NO:272]
Kd [1]: 97 nM

Ac-AGPDWCEEDWYYCWITGTGGGK-NH2 (disulfide 6-13 (inferred); not fully specified) [SEQ ID NO:273]
Kd [1]: 75 nM

Ac-AGANWCEEDWYYCYITGTGGGK-NH2 (disulfide 6-13 (inferred); not fully specified) [SEQ ID NO:281]
Kd [1]: 180 nM

Ac-AGANWCEEDWYYCFITGTGGGK-NH2 (disulfide 6-13 (inferred); not fully specified) [SEQ ID NO:271]
Kd [1]: 310 nM

Ac-AGVNWCEEDWYYCWITGTGGGK-NH2 (disulfide 6-13 (inferred); not fully specified) [SEQ ID NO:280]
Kd [1]: 260 nM

Ac-AGSNWCEEDWYYCYITGTGGGK-NH2 (disulfide 6-13 (inferred); not fully specified) [SEQ ID NO:274]
Kd [1]: 46 nM

Ac-AGRNWCEEDWYYCFITGTGGGK-NH2 (disulfide 6-13 (inferred); not fully specified) [SEQ ID NO:279]
Kd [1]: 190 nM

Ac-GDNWKCEYTQGYDYTECVYLDPGGGK-NH2 (disulfide 6-17 (inferred); not fully specified) [SEQ ID NO:302]
Kd [1]: 820 nM

Ac-AGGGWVECRAETGHCQEYRLGTGGGK-NH2 (disulfide 8-15 (inferred); not fully specified) [SEQ ID NO:290]
Kd [1]: 1600 nM

Ac-AGVWECAKTFPFCHWFGTGGGK-NH2 (disulfide 6-13 (inferred); not fully specified) [SEQ ID NO:265]
Kd [1]: 2600 nM

Ac-AGSDWCRVDWYYCWLMGTGGGK-NH2 (disulfide 6-13 (inferred); not fully specified) [SEQ ID NO:270]
Kd [1]: 64 nM

Ac-AQQVQYQFFLGTPRYEQWDLDKGGK-NH2 (not fully specified) [SEQ ID NO:304]
Kd [1]: 1700 nM

B4: SEQ ID NO:488 (peptide)
peptide: Ac-GDSRVCWEYSWGGQICLGYDPGGGK-NH2
modifications: disulfide 6-16 (inferred); not fully specified; also: C-terminal Lys fluorescein-labeled in some assay forms
Kd [1]: 320 nM

Ac-AGDWGCSLGNWYWCSTEGTGGGK-NH2 (disulfide 6-14 (inferred); not fully specified) [SEQ ID NO:313]
Kd [1]: 2000 nM

Ac-SGRLDCDKVFSGPHGKICVNYGSGGGK-NH2 (disulfide 6-18 (inferred); not fully specified) [SEQ ID NO:317]
Kd [1]: ~2000 nM

Ac-SGRTTCHHQISGPHGKICVNYGSGGGK-NH2 (disulfide 6-18 (inferred); not fully specified) [SEQ ID NO:318]
Kd [1]: 650 nM

SDWCRVDWYYCWLM [phage isolate SDWCRVDWYYCWLM]
binding result [2]: binds

Ac-AGPEWCEVDWYYCWLLGTGGGK-NH2 (disulfide 6-13 (inferred); not fully specified) [SEQ ID NO:276]
Kd [1]: 75 nM

B5: SEQ ID NO:266 (peptide)
peptide: Ac-AGWVECWWKSGQCYEFGTGGGK-NH2
modifications: cysteine pairing not given here; also: C-terminal Lys fluorescein-labeled for some assays, unlabeled for others
Kd [1]: 1300 nM

Ac-AGVAWVECYQTTGKCYTFRGGTGGGK-NH2 (disulfide 8-15 (inferred); not fully specified) [SEQ ID NO:291]
Kd [1]: ~2000 nM
